Test results taken from patent publication EP4803149A2 (Lyvgen Biopharma Holdings Limited, dated 2026).

Target: CD3 (human)
Experiment: ELISA or FCM (as in Example 2)

Binder	EC50 [µg/mL]
Anti-CD3 Ly305 (antibody, V domains shown, mAb; also called parent anti-CD3 mAb) VH: EVQLVESGGGLVQPGGSLRLSCAASGFTFSTYAMNWVRQAPGKGLEWVGRIRSKYNNYATYYADSVKGRFTISRDDSKNSLYLQMNSLKTEDTAVYYCVRHGNFGNSYVSWFAYWGQGTLVTVSS VL: QAVVTQEPSLTVSPGGTVTLTCRSSTGAVTTSNYANWVQQKPGQAPRGLIGGTNKRAPWTPARFSGSLLGGKAALTITGAQAEDEADYYCALWYSNLWVFGGGTKLTVL	0.03
Ly1965 (bispecific antibody, B7H3/CD3; central CD3 Fv) chain 1: QVQLVQSGAEVKKPGASVKVSCKASGYTFTSYVMHWVRQKPGQGLEWIGYINPYNEGTESTDKFKGRATMTSDKSTSTVYMELSSLRSEDTAVYYCASIYYGYEGTYFGVWGQGTLVTVSSASTKGPSVFPLAPSSKSTSGGTAALGCLVKDYFPEPVTVSWNSGALTSGVHTFPAVLQSSGLYSLSSVVTVPSSSLGTQTYICNVNHKPSNTKVDKKVEPKSCGGGGSGGGGSGGGGSGGGGSEVQLVESGGGLVQPGGSLRLSCAASGFTFSTYAMNWVRQAPGKGLEWVGRIRSKYNNYATYYADSVKGRFTISRDDSKNSLYLQMNSLKTEDTAVYYCVRHGNFGNSYVSWFAYWGQGTLVTVSSGGGGSDKTHTCPPCPAPEAAGPSVFLFPPKPKDTLMISRTPEVTCVVVDVSHEDPEVKFNWYVDGVEVHNAKTKPREEQYNSTYRVVSVLTVLHQDWLNGKEYKCKVSNKALPAPIEKTISKAKGQPREPQVYTLPPSREEMTKNQVSLWCLVKGFYPSDIAVEWESNGQPENNYKTTPPVLDSDGSFFLYSKLTVDKSRWQQGNVFSCSVMHEALHNHYTQKSLSLSPG chain 2: QVQLVQSGAEVKKPGASVKVSCKASGYTFTSYVMHWVRQKPGQGLEWIGYINPYNEGTESTDKFKGRATMTSDKSTSTVYMELSSLRSEDTAVYYCASIYYGYEGTYFGVWGQGTLVTVSSASTKGPSVFPLAPSSKSTSGGTAALGCLVKDYFPEPVTVSWNSGALTSGVHTFPAVLQSSGLYSLSSVVTVPSSSLGTQTYICNVNHKPSNTKVDKKVEPKSCGGGGSGGGGSGGGGSGGGGSQAVVTQEPSLTVSPGGTVTLTCRSSTGAVTTSNYANWVQQKPGQAPRGLIGGTNKRAPWTPARFSGSLLGGKAALTITGAQAEDEADYYCALWYSNLWVFGGGTKLTVLGGGGSDKTHTCPPCPAPEAAGPSVFLFPPKPKDTLMISRTPEVTCVVVDVSHEDPEVKFNWYVDGVEVHNAKTKPREEQYNSTYRVVSVLTVLHQDWLNGKEYKCKVSNKALPAPIEKTISKAKGQPREPQVYTLPPSREEMTKNQVSLSCAVKGFYPSDIAVEWESNGQPENNYKTTPPVLDSDGSFFLVSKLTVDKSRWQQGNVFSCSVMHEALHNRFTQKSLSLSPG chain 3: EIVLTQSPATLSLSPGERATLSCRASSSVSYMHWYQQKPGQAPRPWIYATSNLASGIPARFSGSRSGTDYTLTISSLEPEDFAVYYCQQWSSNTLTFGGGTKVEIKRTVAAPSVFIFPPSDEQLKSGTASVVCLLNNFYPREAKVQWKVDNALQSGNSQESVTEQDSKDSTYSLSSTLTLSKADYEKHKVYACEVTHQGLSSPVTKSFNRGEC	0.419
Ly1963 (multi-specific antibody, B7H3/CD3/CD137 tri-specific; central CD3 Fv, terminal CD137 Fv) chain 1: QVQLVQSGAEVKKPGASVKVSCKASGYTFTSYVMHWVRQKPGQGLEWIGYINPYNEGTESTDKFKGRATMTSDKSTSTVYMELSSLRSEDTAVYYCASIYYGYEGTYFGVWGQGTLVTVSSASTKGPSVFPLAPSSKSTSGGTAALGCLVKDYFPEPVTVSWNSGALTSGVHTFPAVLQSSGLYSLSSVVTVPSSSLGTQTYICNVNHKPSNTKVDKKVEPKSCGGGGSGGGGSGGGGSGGGGSEVQLVESGGGLVQPGGSLRLSCAASGFTFSTYAMNWVRQAPGKGLEWVGRIRSKYNNYATYYADSVKGRFTISRDDSKNSLYLQMNSLKTEDTAVYYCVRHGNFGNSYVSWFAYWGQGTLVTVSSGGGGSDKTHTCPPCPAPEAAGPSVFLFPPKPKDTLMISRTPEVTCVVVDVSHEDPEVKFNWYVDGVEVHNAKTKPREEQYNSTYRVVSVLTVLHQDWLNGKEYKCKVSNKALPAPIEKTISKAKGQPREPQVYTLPPSREEMTKNQVSLWCLVKGFYPSDIAVEWESNGQPENNYKTTPPVLDSDGSFFLYSKLTVDKSRWQQGNVFSCSVMHEALHNHYTQKSLSLSPGGGGGSGGGGSGGGGSGGGGSQVQLVQSGAEVKKPGASVKVSCKASGYTFAGFEMHWVRQAPGQGLEWMGAIDPKTGGTDYNQKFKDRVTMTRDTSISTAYMELSRLRSDDTAVYYCARDLGYFDVWGQGTLVTVSS chain 2: QVQLVQSGAEVKKPGASVKVSCKASGYTFTSYVMHWVRQKPGQGLEWIGYINPYNEGTESTDKFKGRATMTSDKSTSTVYMELSSLRSEDTAVYYCASIYYGYEGTYFGVWGQGTLVTVSSASTKGPSVFPLAPSSKSTSGGTAALGCLVKDYFPEPVTVSWNSGALTSGVHTFPAVLQSSGLYSLSSVVTVPSSSLGTQTYICNVNHKPSNTKVDKKVEPKSCGGGGSGGGGSGGGGSGGGGSQAVVTQEPSLTVSPGGTVTLTCRSSTGAVTTSNYANWVQQKPGQAPRGLIGGTNKRAPWTPARFSGSLLGGKAALTITGAQAEDEADYYCALWYSNLWVFGGGTKLTVLGGGGSDKTHTCPPCPAPEAAGPSVFLFPPKPKDTLMISRTPEVTCVVVDVSHEDPEVKFNWYVDGVEVHNAKTKPREEQYNSTYRVVSVLTVLHQDWLNGKEYKCKVSNKALPAPIEKTISKAKGQPREPQVYTLPPSREEMTKNQVSLSCAVKGFYPSDIAVEWESNGQPENNYKTTPPVLDSDGSFFLVSKLTVDKSRWQQGNVFSCSVMHEALHNHYTQKSLSLSPGGGGGSGGGGSGGGGSGGGGSDIQMTQSPSSLSASVGDRVTITCRASQDIRSNLNWYQQKPGGAVKLLIYYTSRLHSGVPSRFSGSGSGTDYTLTISSLQPEDFATYFCQQSEKLPRTFGGGTKVEIR chain 3: EIVLTQSPATLSLSPGERATLSCRASSSVSYMHWYQQKPGQAPRPWIYATSNLASGIPARFSGSRSGTDYTLTISSLEPEDFAVYYCQQWSSNTLTFGGGTKVEIKRTVAAPSVFIFPPSDEQLKSGTASVVCLLNNFYPREAKVQWKVDNALQSGNSQESVTEQDSKDSTYSLSSTLTLSKADYEKHKVYACEVTHQGLSSPVTKSFNRGEC	0.74
Ly2128 (multi-specific antibody, Tri-specific B7H3/CD3/CD28; central CD3 Fv, terminal CD28 Fv) chain 1: QVQLVQSGAEVKKPGASVKVSCKASGYTFTSYVMHWVRQKPGQGLEWIGYINPYNEGTESTDKFKGRATMTSDKSTSTVYMELSSLRSEDTAVYYCASIYYGYEGTYFGVWGQGTLVTVSSASTKGPSVFPLAPSSKSTSGGTAALGCLVKDYFPEPVTVSWNSGALTSGVHTFPAVLQSSGLYSLSSVVTVPSSSLGTQTYICNVNHKPSNTKVDKKVEPKSCGGGGSGGGGSGGGGSGGGGSEVQLVESGGGLVQPGGSLRLSCAASGFTFSTYAMNWVRQAPGKGLEWVGRIRSKYNNYATYYADSVKGRFTISRDDSKNSLYLQMNSLKTEDTAVYYCVRHGNFGNSYVSWFAYWGQGTLVTVSSGGGGSDKTHTCPPCPAPEAAGPSVFLFPPKPKDTLMISRTPEVTCVVVDVSHEDPEVKFNWYVDGVEVHNAKTKPREEQYNSTYRVVSVLTVLHQDWLNGKEYKCKVSNKALPAPIEKTISKAKGQPREPQVYTLPPSREEMTKNQVSLWCLVKGFYPSDIAVEWESNGQPENNYKTTPPVLDSDGSFFLYSKLTVDKSRWQQGNVFSCSVMHEALHNHYTQKSLSLSPGGGGGSGGGGSGGGGSGGGGSQVQLVQSGAEVKKPGASVKVSCKASGYTFTSYYIHWVRQAPGQGLEWIGCIYPGNVNTNYNEKFKDRATLTVDTSISTAYMELSRLRSDDTAVYFCTRSHYGLDWNFDVWGQGTTVTVSS chain 2: not shown chain 3: EIVLTQSPATLSLSPGERATLSCRASSSVSYMHWYQQKPGQAPRPWIYATSNLASGIPARFSGSRSGTDYTLTISSLEPEDFAVYYCQQWSSNTLTFGGGTKVEIKRTVAAPSVFIFPPSDEQLKSGTASVVCLLNNFYPREAKVQWKVDNALQSGNSQESVTEQDSKDSTYSLSSTLTLSKADYEKHKVYACEVTHQGLSSPVTKSFNRGEC	1.08
